The RNAGym collection of RNA variant scans (doi:10.1021/acssynbio.7b00057)

B1: Pistol ribozyme (parent)
chain: GGGUCGUUGUUCCAUAAUCGCGUGGAUAUGGCACGCAAGUUUCUACCGGGCACCGUAAAUGUCCGACUGGAGCCGUUCGGGCGGCUAUAAACAGACCUCAGGCCCGAAGCGUGGCGGCACCUGCCGCCGGUGGUAAAAAAGAUCGGAAGAGCACACGUCU

Variants of: B1
Assay: aptazyme ON/OFF ratio, guanine; higher = stronger switching; co-transcriptional cleavage with and without guanine

Variant | aptazyme ON/OFF ratio
U7G U8G G9C U10G U11G C12A | 1.11
U7G U8G G9C U11A C13G | 1.04
U7G U8G G9C U11A C13A | 1.15
U7G U8G G9C U11A C13U | 1.36
U7G U8G G9C U11C C12G | 3
U7G U8G G9C U11C C12U | 2.49
U7G U8G G9C U11C C12A | 5.2
U7G U8G G9C U10G C13A | 1.31
U7G U8G G9C U10G C13G | 1.28
U7G U8G G9C U10G C13U | 1.26
U7G U8G G9U U10A C13U | 1.31
U7G U8G G9U U10A C13A | 1.13
U7G U8G G9U U10A C13G | 1.1
U7G U8G G9C U11C C12G C13A | 1.16
U7G U8G G9C U11C C12G C13U | 1.39
U7G U8G G9C U11C C12G C13G | 1.06
U7G U8G G9C U10G U11C C13A | 1.09
U7G U8G G9C U10G U11C C13G | 1.08
U7G U8G G9C U10G U11C C13U | 1.05
U7G U8G G9U U10A U11A C12A C13U | 1.29
U7G U8G G9U U10A U11A C12A C13A | 1.02

Variant | aptazyme ON/OFF ratio
U7G U8G G9U U10A U11A C12A C13G | 1.13
U7G U8G G9C U10C U11C C12A | 1.09
U7G U8G G9C U10C U11C C12U | 1.18
U7G U8G G9C U10C U11C C12G | 1.05
U7G U8G G9C U10G U11G C12G C13U | 1.1
U7G U8G G9C U10G U11G C12G C13G | 1.17
U7G U8G G9C U10G U11G C12G C13A | 1.06
U7G U8G G9U U10A U11A C12U C13U | 1.18
U7G U8G G9U U10A U11A C12U C13G | 1.11
U7G U8G G9U U10A U11A C12U C13A | 1.11
U7G U8G G9U C12U C13G | 1.14
U7G U8G G9U C12U C13U | 1.26
U7G U8G G9U C12U C13A | 1.23
U7G U8G G9U U10A C12G | 1.21
U7G U8G G9U U10A C12A | 1.28
U7G U8G G9U U10A C12U | 1.29
U7G U8G G9C U10C C12U C13A | 1.29
U7G U8G G9C U10C C12U C13U | 1.08
U7G U8G G9C U10C C12U C13G | 1.36
U7G U8G G9U C12G | 1.18
U7G U8G G9U C12A | 1.56

Variant | aptazyme ON/OFF ratio
U7G U8G G9U C12U | 1.66
U7G U8G G9U U10G C12U C13U | 1.2
U7G U8G G9U U10G C12U C13A | 1.17
U7G U8G G9U U10G C12U C13G | 1.21
U7G U8G G9C U10C U11G C12U C13A | 1.25
U7G U8G G9C U10C U11G C12U C13U | 1.22
U7G U8G G9C U10C U11G C12U C13G | 1.22
U7G U8G G9U U10C U11A | 1.47
U7G U8G G9U U10C U11C | 2.05
U7G U8G G9U U10C U11G | 1.28
U7G U8G G9C U10G C12U C13U | 1.09
U7G U8G G9C U10G C12U C13A | 1.06
U7G U8G G9C U10G C12U C13G | 1.05
U7G U8G G9U U10A U11A C12G C13A | 1.2
U7G U8G G9U U10A U11A C12G C13U | 1.14
U7G U8G G9U U10A U11A C12G C13G | 1.11
U7G U8G G9U U10A U11C C12U C13U | 1.29
U7G U8G G9U U10A U11C C12U C13A | 1.16
U7G U8G G9U U10A U11C C12U C13G | 1.08
U7G U8G G9C U10C C12U | 1.38
U7G U8G G9C U10C C12G | 1.28

Variant | aptazyme ON/OFF ratio
U7G U8G G9U U10G C13G | 1.21
U7G U8G G9U U10G C13U | 1.36
U7G U8G G9U U10G C13A | 1.27
U7G U8G G9C U10C U11G C13G | 1.27
U7G U8G G9C U10C U11G C13U | 1.3
U7G U8G G9C U10C U11G C13A | 1.38
U7G U8G G9C U11A C12A C13G | 1.05
U7G U8G G9C U11A C12A C13U | 1.16
U7G U8G G9C U11A C12A C13A | 1.14
U7G U8G G9U U10C U11C C12A C13G | 1.3
U7G U8G G9U U10C U11C C12A C13A | 1.33
U7G U8G G9U U10C U11C C12A C13U | 1.53
U7G U8G G9C U10G U11G C12U C13G | 1.05
U7G U8G G9C U10G U11G C12U C13U | 1.17
U7G U8G G9C U10G U11G C12U C13A | 1.14
U7G U8G G9C U11A C12U C13G | 1.15
U7G U8G G9C U11A C12U C13A | 1.13
U7G U8G G9C U11A C12U C13U | 1.26
U7G U8G G9U U10C U11C C12A | 1.46
U7G U8G G9U U10C U11C C12G | 1.46
